# Results published in patent publication US12065466B2, “Methods and compositions for protein sequencing” (Quantum-Si Incorporated, priority 2020, dated 2024).
# Like-named read-outs stand apart in the source and are kept apart here.
# Key:
# [1] = tested on: amino acid at a terminal position of a polypeptide; conditions: Table 2; amino acid identity at a terminal position (phosphotyrosine also internal); inferred from literature and/or demonstrated by the inventors; cited from earlier work
# [2] = tested on: immobilized peptides containing N-terminal R, K or H; test: Biolayer interferometry of UBR-box domain homologs; format: binding; conditions: for binding to RA/KA/HA peptides (single-point screening): 30° C., XAKLDEESILKQK; for binding affinity to N-terminal R with different penultimate amino acids: 14 polypeptides containing N-terminal R; for binding range for RX dipeptides / dissociation rates with R dipeptides: 14 peptides RXGGGDDDFFK (SEQ ID NO: 241)
# Description: The amino acid binding properties of UBR-box domain homologs were evaluated by biolayer interferometry. Peptides containing an N-terminal arginine (R), followed by different amino acids in the penultimate position, were immobilized on a biolayer interferometry sensor surface, allowed to bind to UBR-box protein, and incubated in buffer to allow the UBR-box molecules to dissociate. […] FIG. 32C is a heatmap showing results measured for 24 UBR-box homologs against 14 polypeptides containing N-terminal R followed by different amino acids in the penultimate position.
# UBR proteins bind to the basic N-terminal residues R, K, and H as part of the conserved N-end rule pathway. To identify high-affinity UBR proteins with properties favorable for use in sequencing, a diverse panel of uncharacterized UBR-box domain homologs from 44 species (PS501-PS544) was designed. UBR-box domain homologs were expressed, purified, and evaluated for binding to N-terminal amino acids by biolayer interferometry. Measurements were carried out at 30° C. for each protein for R, K and H binding. The amino-acid binding profile of each new homolog was first evaluated by biolayer interferometry using a single-point screening assay. All peptides in this screen contained a penultimate alanine (A) and consisted of the sequence XAKLDEESILKQK (SEQ ID NO: 238), where X is R, K, or H.
# To evaluate the effect of penultimate amino acids on arginine binding, UBR box-domain homologs were evaluated for binding to 14 different peptides with N-terminal RX (peptide sequence: RXGGGDDDFFK (SEQ ID NO: 241)). The selected RX dipeptides are the 14 most frequently found in the human proteome.
# [3] = tested on: amino acid at a terminal position of a polypeptide; test: Amino acid binding preference of recognition proteins (Tables 1 and 2); conditions: Table 1, ClpS proteins; amino acid identity at a terminal position of a polypeptide; inferred from literature and/or demonstrated by the inventors
# From the text: It should be appreciated that these sequences and other examples described herein are meant to be non-limiting, and recognition molecules in accordance with the application can include any homologs, variants thereof, or fragments thereof minimally containing domains or subdomains responsible for peptide recognition.
# [4] = tested on: FA, LF, WA, and YA peptides; test: Binder-on-chip single-molecule assay (PS218 and wild-type atClpS1); format: binding; parameters: unit not given here
# Description: A variant of atClpS1 was created with active-site substitutions rationally designed to achieve longer pulse widths which can be favorable in single-molecule sequencing reactions. The designed variant (PS218) contains the following mutations relative to wild-type atClpS1: M51F, E52Q, M73T, T70 W. Binder-on-chip experiments were performed for PS218 with FA, LF, WA, and YA peptides to evaluate recognition by signal pulse detection in single-molecule assays. As shown by the results in Table 7, the substitutions relative to the wild-type protein result in longer pulse widths with each peptide tested.
molecule,measurement,setting,value
"H. sapiens Fyn SH2 domain: SEQ ID NO: 116 (protein, listed as Homo sapiens) MGAMDSIQAEEWYFGKLGRKDAERQLLSFGNPRGTFLIRESETTKGAYSLSIRDWDDMKGDHVKHYKIRKLDNGGYYITTRAQFETLQQLVQHYSERAAGLSSRLVVPSHK",Binding Pref.,[1],phospho-Y
"PS629: UBR-box domain homolog, SEQ ID NO: 189 (protein, listed as Pichia pastoris) MCPNYKHHGRPCARQFKQGEPIYRCYECGFDETCVMCMHCFNREQHRDHEVSISIASSSNDGICDCGDPQAWNIELHCQSELD",Binding Pref.,[1],"K, R, H"
"PS626: UBR-box domain homolog, SEQ ID NO: 186 (protein, listed as Zygosaccharomyces parabailii) MYHVYKHSGRNCGRKFKVGEPIYRCHECGYDETCVLCIHCFNPKDHDSHHVYIDICSEFSTGICDCGDTEAFVNPLHCKAEED",Binding Pref.,[1],"K, R, H"
"PS624: UBR-box domain homolog, SEQ ID NO: 184 (protein, listed as Eremothecium sinecaudum) MPKNHNHKGRNCGRSFQPGEPLYRCQECAYDDTCVLCIRCFNPLDHVNHHVSTHICSEFNDGICDCGDVEAWNVELNCKAEED",Binding Pref.,[1],"K, R, H"
"PS628: UBR-box domain homolog, SEQ ID NO: 188 (protein, Candida albicans) MSHRAYHKNSPCGRIFRKGEPIHRCLTCGFDDTCALCSHCFQPEYHEGHKVHIGICQRENGGVCDCGDPEAWTQELFCPYAVD",Binding Pref.,[1],"K, R, H"
"PS538: UBR-box domain homolog, SEQ ID NO: 166 (protein, listed as Saccharomyces cerevisiae) MGDVHKHTGRNCGRKFKIGEPLYRCHECGCDDTCVLCIHCFNPKDHVNHHVCTDICTEFTSGICDCGDEEAWNSPLHCKAEEQ",binding to RA/KA/HA peptides (single-point screening),[2],favorable binding trajectories to RA and KA peptides with notably high response for RA peptide
same,Binding Pref.,[1],"K, R, H"
"PS625: UBR-box domain homolog, SEQ ID NO: 185 (protein, listed as Saccharomyces eubayanus) MGDVHKHTGRNCGRKFKIGEPLYRCHECGCDDTCVLCIHCFNPKDHINHHVCTDICSEFTSGICDCGDEEAWNSSLHCKAEEQ",Binding Pref.,[1],"K, R, H"
"PS620: UBR-box domain homolog, SEQ ID NO: 180 (protein, listed as Saccharomyces cerevisiae) MGNMHIGTACTRLCFPSETIYYCFTCSTNPLYEICELCFDKEKHVNHSYVAKVVMRPEGRICHCGDPFAFNDPSDAFKCKN",Binding Pref.,[1],"K, R, H"
"PS627: UBR-box domain homolog, SEQ ID NO: 187 (protein, listed as Zygosaccharomyces mellis) MPKYHQHSGRYCGRKFKVGEPIYRCHECGFDETCVICIHCFNAKDHETHHVSVSICSEYSTGICDCGDTEAFVNPLHCRAEEV",Binding Pref.,[1],"K, R, H"
"PS622: UBR-box domain homolog, SEQ ID NO: 182 (protein, listed as Kluyveromyces dobzhanskii) MHSRFNHAGRICASKFKVGEPIYRCKECSFDDTCVICVNCFNPKDHVGHHVYTSICSEFNNGICDCGDTEAWNHDMHCKADEN",Binding Pref.,[1],"K, R, H"
"Escherichia coli leucyl/phenylalanyl-tRNA-protein transferase: amino acid recognition protein, SEQ ID NO: 111 (protein, listed as Escherichia coli) MRLVQLSRHSIAFPSPEGALREPNGLLALGGDLSPARLLMAYQRGIFPWFSPGDPILWWSPDPRAVLWPESLHISRSMKRFHKRSPYRVTMNYAFGQVIEGCASDREEGTWITRGVVEAYHRLHELGHAHSIEVWREDELVGGMYGVAQGTLFCGESMFSRMENASKTALLVFCEEFIGHGGKLIDCQVLNDHTASLGACEIPRRDYLNYLNQMRLGRLPNNFWVPRCLFSPQELE",Binding Pref.,[1],"K, R"
"PS218: designed variant of atClpS1 with active-site substitutions, SEQ ID NO: 98 (protein) MIAEPICMQGEGDGEDGGTNRGTSVITRVKPKTKRPNLYRVLLLNDDYTPFQFVIHILERFFQKDREAAWRITLHVHQHGVGECGVFTYEVAETKVSQVMDFARQHQHPLQCVMEKK",Binding Pref.,[3],"F, W, Y, L"
same,Median PW,[4]; FA peptide,0.78
same,mean pulse width,[4]; FA peptide,1.28
same,Median PW,[4]; LF peptide,0.32
same,mean pulse width,[4]; LF peptide,0.56
same,Median PW,[4]; WA peptide,0.58
same,mean pulse width,[4]; WA peptide,1.00
same,Median PW,[4]; YA peptide,1.06
same,mean pulse width,[4]; YA peptide,1.64
"PS505: UBR-box domain homolog, SEQ ID NO: 133 (protein, listed as Brachionus plicatilis) MVCGRVFKSGEPSYFCRECGTDPTCVLCSICFRHSKHRYHKYVMMTSGGGGYCDCGDPEAWKSDPCCELHMP",binding affinity to N-terminal R with different penultimate amino acids,[2],high binding affinity to R in the presence of a wide range of penultimate amino acids
same,Binding Pref.,[1],"K, R, H"
"PS535: UBR-box domain homolog, SEQ ID NO: 163 (protein, listed as Mus musculus) MLCGRVFKVGEPTYSCRDCAVDPTCVLCMECFLGSIHRDHRYRMTTSGGGGFCDCGDTEAWKEGPYCQKHKL",binding range for RX dipeptides,[2],extensive binding range for RX dipeptides
same,dissociation rates with R dipeptides,[2],faster dissociation rates
same,binding affinity to N-terminal R with different penultimate amino acids,[2],high binding affinity to R in the presence of a wide range of penultimate amino acids
same,binding to RA/KA/HA peptides (single-point screening),[2],favorable binding trajectories to RA and KA peptides with notably high response for RA peptide
same,Binding Pref.,[1],"K, R, H"
"PS623: UBR-box domain homolog, SEQ ID NO: 183 (protein, listed as Kazachstania naganishii) MSKQFRHKGRNCGRKFRLGEPLYRCQECGYDDTCVLCINCFNPKDHEGHHIYTDICNDFTSGICDCGDEEAWLSPLHCKAEED",Binding Pref.,[1],"K, R, H"
"PS522: UBR-box domain homolog, SEQ ID NO: 150 (protein, listed as Vombatus ursinus) MLCGKVFKSGETTYSCRDCAIDPTCVLCMNCFQSSVHKNHRYKMHTSTGGGFCDCGDTEAWKTGPFCTIHEP",binding range for RX dipeptides,[2],extensive binding range for RX dipeptides
same,dissociation rates with R dipeptides,[2],faster dissociation rates
same,binding affinity to N-terminal R with different penultimate amino acids,[2],high binding affinity to R in the presence of a wide range of penultimate amino acids
same,binding to RA/KA/HA peptides (single-point screening),[2],favorable binding trajectories to RA and KA peptides with notably high response for RA peptide
same,Binding Pref.,[1],"K, R, H"
"PS619: UBR-box domain homolog, SEQ ID NO: 179 (protein, listed as Vanderwaltozyma polyspora) MENLHIGSCCNRQCYPTQTVYYCLTCTINPLYEICELCFDEDKHVGHTYISKSVIRPEGKVCHCGNPNVFKKPEFAFNCKN",Binding Pref.,[1],"K, R, H"
